Laboratory results as given in paper PMC3156696 (Developmental cell, 2010).

Columns and labels:
[1] = molecular target: GMPCPP-stabilized microtubules (unlabelled, polymerized bovine brain tubulin) (bovine, UniProt Q6B856 1-445); assay: co-sedimentation
[2] = molecular target: soluble αβ-tubulin heterodimer purified from bovine brain (bovine) (UniProt Q6B856); assay: SEC
[3] = molecular target: soluble αβ-tubulin heterodimer purified from bovine brain (bovine) (UniProt Q6B856)
AUC = molecular target: the molecule itself; assay: AUC
[4] = molecular target: soluble αβ-tubulin heterodimer purified from bovine brain (bovine) (UniProt Q6B856); assay: AUC

B1: full-length S. pombe Cls1p (residues 1-1462) (natural protein, UniProt O42874 1-1462, looked up)
chain: MADKDAQDFLKFLKSNASTDEKTRCLDTLRSFFNKNNIPNADLGLFVECFRLALTTVNPLLLRSSVACFETFLRRLRAQYPTWLKFRVPMLKNLVIDHIASRDLQKRVLNILIDLWHFNPSEIEKSLIHLSTTSKSAETRIQCFKWFVLAHNAHLSFDVKSLRPALYINLENANPSVREEAKEVLLLIYKNLSTSAKMQFITDVETTSGLRREILQSLVEELSLISSSSEVIIVQNSASSFQPAPFMTAVATLYPGVELENVKPLLANFSKQLEQDSASMLPAFEGRETEQNWSVRQDSVLRLRQYLRGNACIDYLPELLSVLKTLLPGILLALLSLRTTLSSSAIQLIKEMAIILKSNIDPFLELILPNLLKVCSVTKKLASQAANVTFAAILVNCGVLSRNLSFISLAAHDTNAQLRVFSSNWIFMLISLSPELKNLASLQTNLKAFEKLICRGLADSNSQVREVYRKSFWKLSEYFPSVQEELTNTLEPSVLKQLHLANPNRQAASFNFSGPKRAPIRPLSNLRSFSKSQKEETSSNSSNSSGTRRLGLPQRATPASRERVLPYTRSQAFHSTSLPPSLPSGHSPSIAIPSKRSVSATIKDESKTFELLKNIQRKYELILSGSSVDLPSAEFLSSNLTDALYSGSSICYSLIFSHSLLDLTFQYVDIASLLSQFLLCVYDPSNVGHSFALASFPYVKSHYDAHKYFPIVFDVLMNISNMAPHVKVFPFNTNQKRLIIHGCLLWLKEISDTKLNQLENKPFFVTDKLRYYSSKILAMTAKTKLTSKNWIPLSGLLFSLRAHDTFMFDGLLDRLNEESRTKLVSSWSKQDAFDYSKSSTHQEHLSKNLPTLNTSSSSNSSQTDLLVPHGKGETKETEMQSPIESKEGLLSKDTHIESPQGTSLEKENEEEGKNPVESNCSEESLDDHNIDQTLVNKKETLAQDSESLLQKNNALNEKGFENQFGLSSSAAKVLNKDTLDHVSGPISNSVSSSFKDFTRTPFKEINGERETGFELTSYVNALSKKDDINVQKTENVDESVGLNAMFMDNVNQDSLNSVDQSSGKDKLLLTSSTPNKPTTFFMPANEEILGSPAKDYDIHDQSYSVHELHSENMRENVGQSSLIYNNRDYMNTPMNDFSLSFSEIKGGILESPVESPMTGTISPIDADESVLHDIPAYESLNKSESNKYQEQAYSTPLHHTLNVLPKNKWILSRMHKMENGSPINVDKNLDDAVAALEAAVKELNDGSVNTKTLKFCIKVCKETPSMLYHSHGLLPAILHYIESNNSAMHISDCLILLHEFLVQGYQGVDMHTYHNIICILIEKAEKCKDEPVILAGIEDNITLIAEIADLQGLYEFTQQRLQSLNTETGEKSAPLLLMLLSAILMRLKDLEFLETKDLLRHVVLKYIDHTNPEIRKATFNVCLAVNTIVNNVDETFSILGGLNEGQRLLFMHYLKMKSDEKN
- stoichiometry N [1]: ~6 polymerized tubulin dimers per Cls1p monomer
- stoichiometry N (Cls1p molecules per αβ-tubulin dimer) [2]: 2
- MT rescue frequency in TIRF dynamics assay, 6 μM tubulin, Cls1p 20 nM to 140 nM [3]: 2.15 rescues/min

B2: Cls1p-GFP (full-length Cls1p with GFP fused to its C-terminus) (natural protein, S. pombe, UniProt O42874 1-1462, looked up)
chain: MADKDAQDFLKFLKSNASTDEKTRCLDTLRSFFNKNNIPNADLGLFVECFRLALTTVNPLLLRSSVACFETFLRRLRAQYPTWLKFRVPMLKNLVIDHIASRDLQKRVLNILIDLWHFNPSEIEKSLIHLSTTSKSAETRIQCFKWFVLAHNAHLSFDVKSLRPALYINLENANPSVREEAKEVLLLIYKNLSTSAKMQFITDVETTSGLRREILQSLVEELSLISSSSEVIIVQNSASSFQPAPFMTAVATLYPGVELENVKPLLANFSKQLEQDSASMLPAFEGRETEQNWSVRQDSVLRLRQYLRGNACIDYLPELLSVLKTLLPGILLALLSLRTTLSSSAIQLIKEMAIILKSNIDPFLELILPNLLKVCSVTKKLASQAANVTFAAILVNCGVLSRNLSFISLAAHDTNAQLRVFSSNWIFMLISLSPELKNLASLQTNLKAFEKLICRGLADSNSQVREVYRKSFWKLSEYFPSVQEELTNTLEPSVLKQLHLANPNRQAASFNFSGPKRAPIRPLSNLRSFSKSQKEETSSNSSNSSGTRRLGLPQRATPASRERVLPYTRSQAFHSTSLPPSLPSGHSPSIAIPSKRSVSATIKDESKTFELLKNIQRKYELILSGSSVDLPSAEFLSSNLTDALYSGSSICYSLIFSHSLLDLTFQYVDIASLLSQFLLCVYDPSNVGHSFALASFPYVKSHYDAHKYFPIVFDVLMNISNMAPHVKVFPFNTNQKRLIIHGCLLWLKEISDTKLNQLENKPFFVTDKLRYYSSKILAMTAKTKLTSKNWIPLSGLLFSLRAHDTFMFDGLLDRLNEESRTKLVSSWSKQDAFDYSKSSTHQEHLSKNLPTLNTSSSSNSSQTDLLVPHGKGETKETEMQSPIESKEGLLSKDTHIESPQGTSLEKENEEEGKNPVESNCSEESLDDHNIDQTLVNKKETLAQDSESLLQKNNALNEKGFENQFGLSSSAAKVLNKDTLDHVSGPISNSVSSSFKDFTRTPFKEINGERETGFELTSYVNALSKKDDINVQKTENVDESVGLNAMFMDNVNQDSLNSVDQSSGKDKLLLTSSTPNKPTTFFMPANEEILGSPAKDYDIHDQSYSVHELHSENMRENVGQSSLIYNNRDYMNTPMNDFSLSFSEIKGGILESPVESPMTGTISPIDADESVLHDIPAYESLNKSESNKYQEQAYSTPLHHTLNVLPKNKWILSRMHKMENGSPINVDKNLDDAVAALEAAVKELNDGSVNTKTLKFCIKVCKETPSMLYHSHGLLPAILHYIESNNSAMHISDCLILLHEFLVQGYQGVDMHTYHNIICILIEKAEKCKDEPVILAGIEDNITLIAEIADLQGLYEFTQQRLQSLNTETGEKSAPLLLMLLSAILMRLKDLEFLETKDLLRHVVLKYIDHTNPEIRKATFNVCLAVNTIVNNVDETFSILGGLNEGQRLLFMHYLKMKSDEKN
- stoichiometry N (AUC): 2
- stoichiometry N (tubulin dimer per complex) [4]: 1

B3: Cls1p^604 (residues 1-604) (domain or fragment, S. pombe, UniProt O42874 1-604, looked up)
chain: MADKDAQDFLKFLKSNASTDEKTRCLDTLRSFFNKNNIPNADLGLFVECFRLALTTVNPLLLRSSVACFETFLRRLRAQYPTWLKFRVPMLKNLVIDHIASRDLQKRVLNILIDLWHFNPSEIEKSLIHLSTTSKSAETRIQCFKWFVLAHNAHLSFDVKSLRPALYINLENANPSVREEAKEVLLLIYKNLSTSAKMQFITDVETTSGLRREILQSLVEELSLISSSSEVIIVQNSASSFQPAPFMTAVATLYPGVELENVKPLLANFSKQLEQDSASMLPAFEGRETEQNWSVRQDSVLRLRQYLRGNACIDYLPELLSVLKTLLPGILLALLSLRTTLSSSAIQLIKEMAIILKSNIDPFLELILPNLLKVCSVTKKLASQAANVTFAAILVNCGVLSRNLSFISLAAHDTNAQLRVFSSNWIFMLISLSPELKNLASLQTNLKAFEKLICRGLADSNSQVREVYRKSFWKLSEYFPSVQEELTNTLEPSVLKQLHLANPNRQAASFNFSGPKRAPIRPLSNLRSFSKSQKEETSSNSSNSSGTRRLGLPQRATPASRERVLPYTRSQAFHSTSLPPSLPSGHSPSIAIPSKRSVSATIKD
- stoichiometry N [1]: ~3 polymerized tubulin dimers per Cls1 molecule
